{
  "source": "patent US20160348147",
  "key": {"[1]": {"target": "T1, A4 construct M(YPSDGRGQ)40YGDGQVPMSMRGGDEGQQDDEEGY", "T1 chain": "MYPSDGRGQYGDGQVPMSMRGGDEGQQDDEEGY"}, "[2]": {"target": "T2, ELP-substrate fusion M(GVGVP)60GDGQVPMSMRGGDDEGQQDDEEGY", "T2 chain": "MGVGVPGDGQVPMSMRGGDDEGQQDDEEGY"}, "[3]": {"target": "T3, MSKGPGWGVG(VPGVG)60GDGQVPMSMRGGDDEGQQDDEE(VPGAGVPGGG)30YG fusion polypeptide", "T3 chain": "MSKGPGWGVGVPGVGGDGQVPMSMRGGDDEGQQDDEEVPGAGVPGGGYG"}},
  "data": [
    {"protein": "Human MMP-1 catalytic domain (recombinant, produced in E. coli, 19.9 kDa) (protein) FVLTEGNPRWEQTHLTYRIENYTPDLPRADVDHAIEKAFQLWSNVTPLTFTKVSEGQADIMISFVRGDHRDNSPFDGPGGNLAHAFQPGPGIGGDAHFDEDERWTNNFREYNLHRVAAHELGHSLGLSHSTDIGALMYPSYTFSGDVQLAQDDIDGIQAIYGRSQNPVQP", "values": [
      {"measurement": "transition temperature of 25 µM A4 before and after incubation with 25 ng/mL MMP-1 at 37 C", "setting": "[1]", "value": "a change in transition temperature of A4 construct at 25 µM prior to (solid line) and after (dashed line) incubation with 25 ng/mL of MMP-1 enzyme"},
      {"measurement": "catalytic constant (kcat) from Lineweaver-Burke plot, SDS-PAGE densitometry, 20 ng/mL enzyme, 40 C", "setting": "[2]", "value": "8.0 ± 1.9", "unit": "s⁻¹"},
      {"measurement": "mass spectrometry of the polypeptide before and after incubation with 100 ng/mL MMP-1 for 2 h at 25 C", "setting": "[2]", "value": "most of the 1.8 kDa MMP-sensitive peptide is cleaved off the 25.4 kDa ELP"},
      {"measurement": "optical density at 350 nm and DLS particle size after 12 h with 100 ng/mL MMP-1 at 40 C", "setting": "[2]", "value": "the optical density of the solution shows a dramatic increase as the solution is heated above the CMT to 45 °C"},
      {"measurement": "optical density versus temperature before and after incubation with MMP-1", "setting": "[3]", "value": "Incubation of these micelles with MMP-1 enzyme is shown to result in drastic changes in optical densities at the micelle-forming transition temperature"}
    ]}
  ]
}
